Consider one substance from paper PMC12290059.

This experiment deals with recombinant SARS-CoV-2^RBD (biotinylated, AVI-tagged) (SARS-CoV-2) (UniProt P0DTC2). The experiment can be described thus: BLI. On the technique in general: BLI is a label-free optical method that tracks binding on a fibre tip over time.

The term Kd denotes the constant that tells how readily two partners part at equilibrium.

For the substance “N. vison ACE2 used in biolayer interferometry (domain or fragment)”, the Kd was determined as 1.5 nM.
